Target: T1, human VWF-A2 fragment
T1 chain: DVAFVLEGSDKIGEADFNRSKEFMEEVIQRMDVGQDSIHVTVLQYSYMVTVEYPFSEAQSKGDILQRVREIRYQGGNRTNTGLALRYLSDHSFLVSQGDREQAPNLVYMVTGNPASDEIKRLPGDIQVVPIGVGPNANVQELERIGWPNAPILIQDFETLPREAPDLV
Test: microscale thermophoresis
Design: unit not given beside the values
Details: chain shown with the change;; parent: est. 6.2e-9; read off a plot

- EC50: 2.3e-09
B1: human recombinant wild-type complement factor H, P08603 W1183R (protein)
chain: EDCNELPPRRNTEILTGSWSDQTYPEGTQAIYKCRPGYRSLGNVIMVCRKGEWVALNPLRKCQKRPCGHPGDTPFGTFTLTGGNVFEYGVKAVYTCNEGYQLLGEINYRECDTDGWTNDIPICEVVKCLPVTAPENGKIVSSAMEPDREYHFGQAVRFVCNSGYKIEGDEEMHCSDDGFWSKEKPKCVEISCKSPDVINGSPISQKIIYKENERFQYKCNMGYEYSERGDAVCTESGWRPLPSCEEKSCDNPYIPNGDYSPLRIKHRTGDEITYQCRNGFYPATRGNTAKCTSTGWIPAPRCTLKPCDYPDIKHGGLYHENMRRPYFPVAVGKYYSYYCDEHFETPSGSYWDHIHCTQDGWSPAVPCLRKCYFPYLENGYNQNYGRKFVQGKSIDVACHPGYALPKAQTTVTCMENGWSPTPRCIRVKTCSKSSIDIENGFISESQYTYALKEKAKYQCKLGYVTADGETSGSITCGKDGWSAQPTCIKSCDIPVFMNARTKNDFTWFKLNDTLDYECHDGYESNTGSTTGSIVCGYNGWSDLPICYERECELPKIDVHLVPDRKKDQYKVGEVLKFSCKPGFTIVGPNSVQCYHFGLSPDLPICKEQVQSCGPPPELLNGNVKEKTKEEYGHSEVVEYYCNPRFLMKGPNKIQCVDGEWTTLPVCIVEESTCGDIPELEHGWAQLSSPPYYYGDSVEFNCSESFTMIGHRSITCIHGVWTQLPQCVAIDKLKKCKSSNLIILEEHLKNKKEFDHNSNIRYRCRGKEGWIHTVCINGRWDPEVNCSMAQIQLCPPPPQIPNSHNMTTTLNYRDGEKVSVLCQENYLIQEGEEITCKDGRWQSIPLCVEKIPCSQPPQIEHGTINSSRSSQESYAHGTKLSYTCEGGFRISEENETTCYMGKWSSPPQCEGLPCKSPPEISHGVVAHMSDSYQYGEEVTYKCFEGFGIDGPAIAKCLGEKWSHPPSCIKTDCLSLPSFENAIPMGEKKDVYKAGEQVTYTCATYYKMDGASNVTCINSRWTGRPTCRDTSCVNPPTVQNAYIVSRQMSKYPSGERVRYQCRSPYEMFGDEEVMCLNGNWTEPPQCKDSTGKCGPPPPIDNGDITSFPLSVYAPASSVEYQCQNLYQLEGNKRITCRNGQWSEPPKCLHPCVISREIMENYNIALRRTAKQKLYSRTGESVEFVCKRGYRLSSRSHTLRTTCWDGKLEYPTCAKR
